Earlier results in patent publication US20190262496A1, “Compositions and Methods for Collagen-Based Sutures and Antibacterial Coatings” (UNIVERSITY HOSPITALS CLEVELAND MEDICAL CENTER, priority 2016, published 2019).

Settings: in vivo

PDGF-BB: platelet derived growth factor-BB
half-life of the growth factor: a few minutes
